Assay results reported in paper PMC6920769, “Knockout of Arabidopsis Serotonin N-Acetyltransferase-2 Reduces Melatonin Levels and Delays Flowering” (Biomolecules, 2019).

B1: AtSNAT2 (Arabidopsis thaliana) (protein)
chain: MFLGGTISTPPASLRLRSTLNPQNAVTQSSSQATFPAAMQRKPPSYSISDEDLESRGFLLRRTTEGLNLDQLNSVFAAVGFPRRDTAKIEVALQHTDALLWVEYEKTRRPVAFARATGDGVFNAIIWDVVVDPSFQSCGLGKAVMERLIEDLQVKGICNIALYSEPRVLGFYRPLGFVSDPDGIKGMVFIRKQRNKK
notes: kinetics text says recombinant AtSNAT2 (not the truncated form)

Legend:
AtSNAT1 = molecular target: T1, AtSNAT1 (Arabidopsis thaliana, UniProt Q7X9V3); assay: HPLC of N-acetylserotonin formed; format: biochemical; conditions: serotonin 0.5 mM
T1 construct: gene NSI

[1] = substrate: NCCc1c[nH]c2ccc(O)cc12; assay: HPLC of N-acetylserotonin formed, Lineweaver-Burk; format: biochemical, Arabidopsis thaliana; conditions: acetyl-CoA 0.5 mM, 100 mM potassium phosphate pH 7.8, 45 °C, printed as Km for NAS (synthesis)
[2] = substrate: COc1ccc2[nH]cc(CCN)c2c1; assay: HPLC of melatonin formed, Lineweaver-Burk; format: biochemical, Arabidopsis thaliana; conditions: acetyl-CoA 0.5 mM, 100 mM potassium phosphate pH 7.8, 45 °C

T1 sequence (Q7X9V3 59-258): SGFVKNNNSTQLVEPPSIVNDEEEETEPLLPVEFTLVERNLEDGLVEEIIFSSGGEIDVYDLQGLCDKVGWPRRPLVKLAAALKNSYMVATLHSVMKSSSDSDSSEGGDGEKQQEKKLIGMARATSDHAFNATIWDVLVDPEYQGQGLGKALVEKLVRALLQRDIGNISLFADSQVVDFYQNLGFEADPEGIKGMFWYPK

Row | Molecule | HPLC of N-acetylserotonin formed (AtSNAT1) | Km [1] [µM] | Km [2] [µM]
1 | NCCc1c[nH]c2ccc(O)cc12 [serotonin] | Melatonin-mediated inhibition of NAS synthesis by recombinant AtSNAT1 |  | 
2 | B1 |  | 232 | 630
